The values that follow come from publication PMC4006906 (2014).

As usually defined, the Kd is the concentration at which binding is half-saturated. One may read the koff as a measure of how fast the partners let go of each other.

Read-outs that look alike come from different tables or passages of the source.

Experiment in all cases: SPR
A general note: Surface plasmon resonance follows binding to a sensor surface in real time, without labels.

For test [1], the target named is T1, H5VN04 trimeric HA (recombinant hemagglutinin) (influenza A virus (H5VN04), UniProt Q6DQ33).
Test [2] has as its target T1, H5VN04 trimeric HA (recombinant …). This is another data set of the same source.
Test [3] shares this target. The source holds these as a separate data set.
The target is the same in test [4]. The source holds these as a separate data set.

B1: A66 germline CDR-H2 variant (IIPIFGTA) scFv (scFv, V domains shown)
VH: QVQLVQSGAEVKKPGSSVKVSCKASGGPFSMTAFTWLRQAPGQGLEWMGGIIPIFGTAKYAQKFQGRVTITADESTNTANMELTSLKSEDTAVYYCARTLSSYQPNNDAFAIWGQGTMVTVSS
VL: EIVLTQSPATLSLSPGERATLSCRASQSVSSYLAWYQQKPGQAPRLLIYDASNRATGIPARFSGSGSGTDFTLTISRLEPEDFAVYFCQQYGSSPQFGQGTRLEIK
As for B1, the Kd in test [1] amounted to 4.2 nM. In addition, the koff in test [2] was found to be 0.0049 s⁻¹.

B2: A66 CDR-H2 variant IIPIFRTA (germline CDR-H2 with Arg55 restored) scFv (scFv, V domains shown)
VH: QVQLVQSGAEVKKPGSSVKVSCKASGGPFSMTAFTWLRQAPGQGLEWMGGIIPIFRTAKYAQKFQGRVTITADESTNTANMELTSLKSEDTAVYYCARTLSSYQPNNDAFAIWGQGTMVTVSS
VL: EIVLTQSPATLSLSPGERATLSCRASQSVSSYLAWYQQKPGQAPRLLIYDASNRATGIPARFSGSGSGTDFTLTISRLEPEDFAVYFCQQYGSSPQFGQGTRLEIK
For B2, the Kd in test [1] is 3.2 nM. Also, the koff in test [2] came to 0.0034 s⁻¹.

B3: A66 CDR-H2 variant ISPIFGTA (germline CDR-H2 with Ser52 restored) scFv (scFv, V domains shown)
VH: QVQLVQSGAEVKKPGSSVKVSCKASGGPFSMTAFTWLRQAPGQGLEWMGGISPIFGTAKYAQKFQGRVTITADESTNTANMELTSLKSEDTAVYYCARTLSSYQPNNDAFAIWGQGTMVTVSS
VL: EIVLTQSPATLSLSPGERATLSCRASQSVSSYLAWYQQKPGQAPRLLIYDASNRATGIPARFSGSGSGTDFTLTISRLEPEDFAVYFCQQYGSSPQFGQGTRLEIK
B3: the equilibrium dissociation constant (Kd) in test [1] was 1.1 nM. Moreover, the koff in test [2] was 0.00023 s⁻¹.

B4: A66 scFv (wild type) (scFv, V domains shown)
VH: QVQLVQSGAEVKKPGSSVKVSCKASGGPFSMTAFTWLRQAPGQGLEWMGGISPIFRTPKYAQKFQGRVTITADESTNTANMELTSLKSEDTAVYYCARTLSSYQPNNDAFAIWGQGTMVTVSS
VL: EIVLTQSPATLSLSPGERATLSCRASQSVSSYLAWYQQKPGQAPRLLIYDASNRATGIPARFSGSGSGTDFTLTISRLEPEDFAVYFCQQYGSSPQFGQGTRLEIK
On to B4, for which the Kd in test [1] was 0.11 nM. The koff in test [2] was 5e-05 s⁻¹.

B5: F10 CDR-H2 variant ISPIFGTA (germline CDR-H2 with Ser52 restored) scFv (scFv, V domains shown)
VH: QVQLVQSGAEVKKPGSSVKVSCTSSEVTFSSFAISWVRQAPGQGLEWLGGISPIFGTANYAQKFQGRVTITADQSTRTAYMDLRSLRSEDTAVYYCARSPSYICSGGTCVFDHWGQGTLVTVSS
VL: QPGLTQPPSVSKGLRQTATLTCTGNSNNVGNQGAAWLQQHQGHPPKLLSYRNNDRPSGISERFSASRSGNTASLTITGLQPEDEADYYCSTWDSSLSAVVFGGGTKLTVL
In the case of B5, the Kd in test [1] was 1.2 nM. Moreover, in test [2], the koff was determined as 0.00025 s⁻¹.

B6: F10 Y98A scFv (scFv, V domains shown)
VH: QVQLVQSGAEVKKPGSSVKVSCTSSEVTFSSFAISWVRQAPGQGLEWLGGISPMFGTPNYAQKFQGRVTITADQSTRTAYMDLRSLRSEDTAVYYCARSPSAICSGGTCVFDHWGQGTLVTVSS
VL: QPGLTQPPSVSKGLRQTATLTCTGNSNNVGNQGAAWLQQHQGHPPKLLSYRNNDRPSGISERFSASRSGNTASLTITGLQPEDEADYYCSTWDSSLSAVVFGGGTKLTVL
Consider B6, for which the Kd in test [3] amounted to 350 nM. For the same molecule, the dissociation rate constant (koff) in test [4] was 0.097 s⁻¹.

B7: F10 scFv (wild type) (scFv, V domains shown)
VH: QVQLVQSGAEVKKPGSSVKVSCTSSEVTFSSFAISWVRQAPGQGLEWLGGISPMFGTPNYAQKFQGRVTITADQSTRTAYMDLRSLRSEDTAVYYCARSPSYICSGGTCVFDHWGQGTLVTVSS
VL: QPGLTQPPSVSKGLRQTATLTCTGNSNNVGNQGAAWLQQHQGHPPKLLSYRNNDRPSGISERFSASRSGNTASLTITGLQPEDEADYYCSTWDSSLSAVVFGGGTKLTVL
As for B7, in test [3], the Kd stood at 0.1 nM. Besides, the koff in test [4] amounted to 3.5e-05 s⁻¹.

B8: F10 CDR-H2 variant IIPMFGTA (germline CDR-H2 with Met53 restored) scFv (scFv, V domains shown)
VH: QVQLVQSGAEVKKPGSSVKVSCTSSEVTFSSFAISWVRQAPGQGLEWLGGIIPMFGTANYAQKFQGRVTITADQSTRTAYMDLRSLRSEDTAVYYCARSPSYICSGGTCVFDHWGQGTLVTVSS
VL: QPGLTQPPSVSKGLRQTATLTCTGNSNNVGNQGAAWLQQHQGHPPKLLSYRNNDRPSGISERFSASRSGNTASLTITGLQPEDEADYYCSTWDSSLSAVVFGGGTKLTVL
Regarding B8, the Kd in test [1] stood at 270 nM.

B9: CR6261 Y98A scFv (scFv, V domains shown)
VH: EVQLVESGAEVKKPGSSVKVSCKASGGPFRSYAISWVRQAPGQGPEWMGGIIPIFGTTKYAPKFQGRVTITADDFAGTVYMELSSLRSEDTAMYYCAKHMGAQVRETMDVWGKGTTVTVSS
VL: QSVLTQPPSVSAAPGQKVTISCSGSSSNIGNDYVSWYQQLPGTAPKLLIYDNNKRPSGIPDRFSGSKSGTSATLGITGLQTGDEANYYCATWDRRPTAYVVFGGGTKLTVL
B9: in test [3], the Kd was found to be 1600 nM. In addition, the koff in test [4] came out at 0.027 s⁻¹.

B10: CR6261 scFv (wild type) (scFv, V domains shown)
VH: EVQLVESGAEVKKPGSSVKVSCKASGGPFRSYAISWVRQAPGQGPEWMGGIIPIFGTTKYAPKFQGRVTITADDFAGTVYMELSSLRSEDTAMYYCAKHMGYQVRETMDVWGKGTTVTVSS
VL: QSVLTQPPSVSAAPGQKVTISCSGSSSNIGNDYVSWYQQLPGTAPKLLIYDNNKRPSGIPDRFSGSKSGTSATLGITGLQTGDEANYYCATWDRRPTAYVVFGGGTKLTVL
Take B10: the Kd in test [3] is 0.34 nM. Further, the koff in test [4] amounted to 0.00012 s⁻¹.

B11: CR6261 F54A scFv (scFv, V domains shown)
VH: EVQLVESGAEVKKPGSSVKVSCKASGGPFRSYAISWVRQAPGQGPEWMGGIIPIAGTTKYAPKFQGRVTITADDFAGTVYMELSSLRSEDTAMYYCAKHMGYQVRETMDVWGKGTTVTVSS
VL: QSVLTQPPSVSAAPGQKVTISCSGSSSNIGNDYVSWYQQLPGTAPKLLIYDNNKRPSGIPDRFSGSKSGTSATLGITGLQTGDEANYYCATWDRRPTAYVVFGGGTKLTVL
For the molecule B11, in test [3], the Kd came to 290 nM. The koff in test [4] was found to be 0.0073 s⁻¹.
